Measured values as given in the supplement of paper PMC9732359.
± gives the uncertainty stated by the source.

Experiment: protein stability index of a GFP-peptide fusion (yeast GPS) (PSI 1-4); higher = more stable; sorted into four equal gates, so the index is relative within each strain
Summary of the method: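 For each peptide, the protein stability index sums the read frequency in every gate after multiplying it by the gate number. Read frequencies came from plasmids that were PCR-amplified from each gate and Illumina-sequenced, with reads assigned to strains by barcodes. The gates were four equal bins of GFP/Cherry fluorescence ratio applied to mid-log yeast in leucine-free medium carrying a pooled library of tiled 17-residue yeast protein peptides fused downstream of GFP on a Cherry-expressing plasmid.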

Row | Sequence | protein stability index (doa10∆) | protein stability index (pdr5∆) | protein stability index (san1∆) | protein stability index (ubr1∆)
1 | VGLVMFSQFWYWFPLAH [RPN2] | 1.52 ± 0.078 | 1.39 ± 0.072 | 1.66 ± 0.17 | 1.41 ± 0.051
2 | VGVGKLNKLYGGAKSRG [RPS19A] | 3.29 ± 0.066 | 3.39 ± 0.1 | 3.2 ± 0.047 | 3.58 ± 0.11
3 | VHDKILEDLVFPTEIVG [RPS7A] | 3.3 ± 0.13 | 3.15 ± 0.076 | 3.27 ± 0.061 | 3.31 ± 0.1
4 | VHTIIAGLDEDGKGAVY [PRE7] | 3.63 ± 0.16 | 3.41 ± 0.099 | 3.35 ± 0.093 | 3.32 ± 0.093
5 | VHVQLLINLKISPLMKS [SRB8] | 1.44 ± 0.058 | 1.59 ± 0.048 | 1.55 ± 0.091 | 1.44 ± 0.05
6 | VIDGKLPFMQNAGPNSN [YDL088C/ASM4] | 2.93 ± 0.049 | 3.04 ± 0.054 | 2.91 ± 0.037 | 2.92 ± 0.04
7 | VIELPLKNPEIFQRVGI [RPT4] | 2.17 ± 0.11 | 2.16 ± 0.21 | 2.46 ± 0.12 | 2.29 ± 0.17
8 | VILAKNENETRDKVCKQ [PGD1] | 3.45 ± 0.18 | 2.96 ± 0.12 | – | –
9 | VISTIENVLFYIGRVNK [COB] | 1.92 ± 0.069 | 1.89 ± 0.052 | 2.43 ± 0.058 | 2.62 ± 0.065
10 | VKAFLSIFEDAIKELNY [NUT1] | 2.04 ± 0.091 | 1.73 ± 0.087 | 2.55 ± 0.19 | 2.62 ± 0.19
11 | VKCKMSALQQIMYQQML [SNF2] | 2.8 ± 0.11 | 2.56 ± 0.14 | 2.72 ± 0.12 | 2.8 ± 0.074
12 | VKDELMFSPLVDSGSND [RPO21] | 3.11 ± 0.065 | 3.17 ± 0.053 | 3.22 ± 0.047 | 3.21 ± 0.048
13 | VKDKQSKVSDDSESESG [RPN8] | 1.97 ± 0.11 | 2.78 ± 0.13 | – | 2.9 ± 0.13
14 | VKGETRIQNRVKLGLNS [PRP8] | 2.08 ± 0.16 | 2.7 ± 0.15 | 2.23 ± 0.23 | 2.58 ± 0.15
15 | VKIGDIEKWTANLLPAR [RPS22A] | 2.19 ± 0.076 | 2.65 ± 0.095 | 2.56 ± 0.076 | 3.17 ± 0.087
16 | VKKPHRYKPGTVALREI [HHT1] | 3.15 ± 0.14 | 3.17 ± 0.1 | 2.75 ± 0.094 | 3.25 ± 0.12
17 | VKLMKNITDYETHPDNS [BRR2] | 2.37 ± 0.054 | 2.42 ± 0.042 | 2.54 ± 0.049 | 2.09 ± 0.04
18 | VKNKYNVGKQLSNEIIY [PRP28] | 2.35 ± 0.062 | 2.6 ± 0.069 | 2.36 ± 0.071 | 2.57 ± 0.052
19 | VKNNQELDQEYRSCETQ [SMC4] | 2.95 ± 0.2 | – | – | –
20 | VKSEVDVQVDAEEKREA [ITC1] | 3.22 ± 0.17 | 2.97 ± 0.21 | 3.12 ± 0.23 | 3.16 ± 0.11
21 | VKSLVDNMITGVTKGYK [RPL9A] | 2.75 ± 0.081 | 3.31 ± 0.14 | 2.92 ± 0.25 | 3.11 ± 0.073
22 | VKTSPDAKKCIAACTGV [FAS1] | 2.41 ± 0.12 | 3.02 ± 0.16 | 3.01 ± 0.24 | 2.48 ± 0.08
23 | VKVKVSYQKLLKNYVLN [PRP8] | 1.33 ± 0.043 | 1.36 ± 0.035 | 1.46 ± 0.062 | 1.63 ± 0.036
24 | VKVQPEGKYIVDVAKDI [RPT6] | 3.35 ± 0.12 | 3.14 ± 0.17 | 3.29 ± 0.038 | 3.16 ± 0.11
25 | VKYINFGKTVKDGPFYT [RPC31] | 3 ± 0.1 | 2.84 ± 0.085 | 2.35 ± 0.061 | 2.29 ± 0.044
26 | VLDKMHARARGPRAVLT [RET1] | 2.88 ± 0.11 | 3.22 ± 0.11 | 3.15 ± 0.067 | 3.09 ± 0.087

Row | Sequence | protein stability index (doa10∆) | protein stability index (pdr5∆) | protein stability index (san1∆) | protein stability index (ubr1∆)
27 | VLEKKTRQASDLASSKE [RPN5] | 3.38 ± 0.23 | 3.41 ± 0.15 | – | 2.97 ± 0.24
28 | VLESHWKQDLTKEEAIK [PUP1] | 2.71 ± 0.18 | 3.15 ± 0.13 | 3.32 ± 0.12 | 3.08 ± 0.15
29 | VLGFLQLFHNLISIHSR [YJL039C/NUP192] | 2.67 ± 0.068 | 2.89 ± 0.059 | 2.85 ± 0.056 | 2.98 ± 0.048
30 | VLLATWNLEKWREIIEK [IRR1] | – | 3.14 ± 0.16 | 2.92 ± 0.1 | –
31 | VLLDARDIEKITSLYAL [CDC53] | 1.69 ± 0.038 | 1.99 ± 0.034 | 1.72 ± 0.06 | 2.02 ± 0.029
32 | VLNCLRTMYFILDGQDV [YJR042W/NUP85] | 1.87 ± 0.083 | 1.42 ± 0.091 | 1.31 ± 0.1 | 1.34 ± 0.078
33 | VLNQQLPIESQFVSKLV [BRR2] | 1.74 ± 0.066 | 1.98 ± 0.048 | 1.96 ± 0.1 | 2.01 ± 0.043
34 | VLPKIFNSVKSFDEWFN [SNF2] | 2.83 ± 0.18 | 2.43 ± 0.078 | 1.55 ± 0.2 | 1.77 ± 0.077
35 | VLPLGSVPEGTIVSNVE [RPL2A] | 3.19 ± 0.12 | 3.33 ± 0.11 | 2.78 ± 0.18 | 3.12 ± 0.094
36 | VLRKQKRYTVKKALAKA [RPL14A] | 2.08 ± 0.14 | 2.14 ± 0.1 | – | 1.55 ± 0.19
37 | VLRLKPGRKYTTLGKLS [RPL16A] | 2.83 ± 0.047 | 2.94 ± 0.05 | 2.86 ± 0.082 | 3.03 ± 0.051
38 | VLSALEGKSVDELITEG [RPP2A] | – | 3.23 ± 0.15 | 3.41 ± 0.073 | 3.45 ± 0.28
39 | VLTQLTALALKYLIKYN [CSI1] | 2.37 ± 0.11 | 2.75 ± 0.08 | 2.55 ± 0.11 | 2.47 ± 0.074
40 | VMFATNRPNTLDPALLR [RPT1] | 2.81 ± 0.075 | 3.05 ± 0.079 | 2.9 ± 0.062 | 2.91 ± 0.073
41 | VMIAEIPTLAIDSVEVE [RPB3] | 2.3 ± 0.18 | 2.65 ± 0.11 | – | –
42 | VMLRLLLVVIFKKTLRS [SRB4] | 1.59 ± 0.068 | 1.56 ± 0.057 | 1.25 ± 0.098 | 1.23 ± 0.088
43 | VMTISSLEQRTLNPDLF [RPC82] | – | 3.1 ± 0.28 | – | –
44 | VNCFHEDTELYQELIKN [YJL039C/NUP192] | 2.13 ± 0.12 | 2.82 ± 0.16 | 2.83 ± 0.081 | 2.67 ± 0.056
45 | VNEDPIFHPMIHYSWSF [YML103C/NUP188] | 2.56 ± 0.056 | 2.46 ± 0.039 | 2.42 ± 0.045 | 2.49 ± 0.046
46 | VNEIMYKCTAAMEKYLL [MTW1] | 2.19 ± 0.046 | 2.44 ± 0.06 | 2.4 ± 0.07 | 2.29 ± 0.056
47 | VNIHHLLNEYRPHQSRE [MED7] | 2.81 ± 0.084 | 2.4 ± 0.16 | 1.81 ± 0.2 | 2.25 ± 0.1
48 | VNIPSFMVRLDSEKHID [RPS9A] | 2.62 ± 0.081 | 2.64 ± 0.051 | 2.48 ± 0.059 | 2.2 ± 0.052
49 | VNISAVDNTTEQSNSRK [YCG1] | 3.26 ± 0.23 | 2.35 ± 0.28 | 3.1 ± 0.25 | –
50 | VNKYGLRADKLYEKLKQ [ISW2] | 1.52 ± 0.13 | 1.5 ± 0.11 | 1.6 ± 0.13 | 1.47 ± 0.15
51 | VNNPQEETSHLLTVTPG [RPN10] | 2.62 ± 0.13 | 2.84 ± 0.08 | 2.99 ± 0.14 | 2.86 ± 0.066
52 | VNNRDSEKGFSKEQIHG [YCS4] | – | 3.49 ± 0.18 | – | –
